Assay results published in patent publication US20190365892A1 (Biogen, published 2019).
Substitutions are numbered along the chain they refer to. Blank lines part the entries; values can stand above or below the molecule they belong to.

Legend:
[1] = target: VLA-4 on tumor cell lines (Mec1, JM1, U266, H929, HL60, KG1) (UniProt P13612); test: flow cytometry on JM1 (CLL) cells
[2] = target: VLA-4 on tumor cell lines (Mec1, JM1, U266, H929, HL60, KG1) (UniProt P13612); test: flow cytometry on Mec1 (CLL) cells
[3] = target: VLA-4 on tumor cell lines (Mec1, JM1, U266, H929, HL60, KG1) (UniProt P13612); test: flow cytometry on KG1 (AML) cells
[4] = target: T1, α4β1 (UniProt P13612 34-970; P05556 21-728); test: competition ELISA; mixture of test mAb and mouse HP1/2 (competitor) on α4β1
T1 construct: The preparation is not described; also called VLA-4; alpha4beta1 integrin

[5] = target: T1, α4β1; test: competition ELISA; α4β1 preincubated with test mAb, competitor murine HP1/2
[6] = target: VLA-4 on tumor cell lines (Mec1, JM1, U266, H929, HL60, KG1) (UniProt P13612); test: flow cytometry on HL60 (AML) cells
[7] = target: VLA-4 on tumor cell lines (Mec1, JM1, U266, H929, HL60, KG1) (UniProt P13612); test: flow cytometry on U266 (MM) cells
[8] = target: VLA-4 on tumor cell lines (Mec1, JM1, U266, H929, HL60, KG1) (UniProt P13612); test: flow cytometry on H929 (MM) cells
[9] = target: VLA-4 on tumor cell lines (Mec1, JM1, U266, H929, HL60, KG1) (UniProt P13612); test: cell-based or functional assay

Molecule: Humanized HP1/2 (HuHP1/2) (antibody)
EC50 [1]: 0.21 nM | EC50 [2]: 0.11 nM | EC50 [3]: 0.19 nM | IC50 [4]: 1.41 nM | IC50 [5]: 1.05 nM | EC50 [6]: 0.11 nM | EC50 [7]: 0.46 nM | EC50 [8]: 0.91 nM | IC50 (nM), inhibition of adhesion of H929 (MM) cells to Fibronectin-coated wells [9]: 0.21 nM | IC50 (nM), inhibition of adhesion of H929 (MM) cells to VCAM1-Ig-coated wells [9]: 1.35 nM | IC50 (nM), inhibition of adhesion of HL60 (AML) cells to Fibronectin-coated wells [9]: 0.16 nM | IC50 (nM), inhibition of adhesion of HL60 (AML) cells to VCAM1-Ig-coated wells [9]: 0.91 nM | IC50 (nM), inhibition of adhesion of JM1 (CLL) cells to VCAM1-Ig-coated wells [9]: 0.12 nM | IC50 (nM), inhibition of adhesion of KG1 (AML) cells to Fibronectin-coated wells [9]: 0.05 nM | IC50 (nM), inhibition of adhesion of KG1 (AML) cells to VCAM1-Ig-coated wells [9]: 0.1 nM | IC50 (nM), inhibition of adhesion of Mec1 (CLL) cells to Fibronectin-coated wells [9]: 0.1 nM | IC50 (nM), inhibition of adhesion of Mec1 (CLL) cells to VCAM1-Ig-coated wells [9]: 0.07 nM | IC50 (nM), inhibition of adhesion of U266 (MM) cells to Fibronectin-coated wells [9]: 0.14 nM | IC50 (nM), inhibition of adhesion of U266 (MM) cells to VCAM1-Ig-coated wells [9]: 0.13 nM | antibody concentration giving maximal inhibition of HL60 cell binding to FN and VCAM1-Ig [9]: 20 µg/mL | antibody concentration giving maximal inhibition of Mec1 cell binding to FN and VCAM1-Ig [9]: 20 µg/mL | antibody concentration giving maximal inhibition of U266 cell binding to FN and VCAM1-Ig [9]: 20 µg/mL

B1: Chimeric HP1/2 (antibody, V domains shown)
VH: EVQLQQSGAELVKPGASVKLSCTASGFNIKDTYMHWVKQRPEQGLEWIGRIDPASGDTKYDPKFQVKATITADTSSNTAWLQLSSLTSEDTAVYYCADGMWVSTGYALDFWGQGTTVTVSS
VL: SIVMTQTPKFLLVSAGDRVTITCKASQSVTNDVAWYQQKPGQSPKLLIYYASNRYTGVPDRFTGSGYGTDFTFTISTVQAEDLAVYFCQQDYSSPYTFGGGTKLEIK
notes: also called chimerized HP1/2 antibody; chimeric mAb
IC50 [4]: 1.64 nM | IC50 [5]: 1.06 nM

B2: H1L0 (antibody, V domains shown)
VH: EVQLVQSGAEVKKPGATVKISCKASGFNIKDTYMHWVQQAPGKGLEWMGRIDPASGDTKYDPKFQVRVTITADTSTDTAYMELSSLRSEDTAVYYCADGMWVSTGYALDFWGQGTLVTVSS
VL: DIVMTQSPDSLAVSLGERATINCKASQSVTNDVAWYQQKPGQPPKLLIYYASNRYTGVPDRFSGSGSGTDFTLTISSLQAEDVAVYYCQQDYSSPYTFGQGTKVEIK
IC50 [4]: 4.46 nM | IC50 [5]: 1.87 nM

B3: H1L1 (antibody, V domains shown)
VH: B2 VH
VL: B2 VL with D1S, Y87F
IC50 [4]: 4.55 nM | IC50 [5]: 1.67 nM

Now those with a lower IC50 [5], led by results:

IC50 [4]: 1.34 nM | IC50 [5]: 0.9 nM
B4: H1L2 (antibody, V domains shown)
VH: B2 VH
VL: B2 VL with D1S, S67Y, Y87F

IC50 [5]: 0.49 nM
B5: H1L3 (antibody, V domains shown)
VH: B2 VH
VL: B2 VL with D1S, S67Y, L73F, V85T, Y87F
